Measurements published in PMC3324550, “Antibiotic Resistance Is Prevalent in an Isolated Cave Microbiome” (PLoS ONE, 2012).

Columns and labels:
[1] = tested on: T1, MPH (2′)-II from B. paraconglomeratum (mphE); assay: pyruvate kinase/lactate dehydrogenase coupled assay, NADH absorbance at […] nm; format: biochemical, Brachybacterium paraconglomeratum
T1 construct: codon-optimised synthetic gene in pET28b (NdeI/HindIII), E. coli BL21(DE3); IMAC and gel filtration

[2] = target: T1, MPH (2′)-II from B. paraconglomeratum (mphE); assay: as above; format: biochemical, Brachybacterium paraconglomeratum; details: substrate inhibition constant (substrate-inhibition fit); GTP 200 µM
[3] = tested on: CC[C@H]1OC(=O)[C@H](C)C(=O)[C@H](C)[C@@H](O[C@@H]2O[C@H](C)C[C@H](N(C)C)[C@H]2O)[C@](C)(OC)C[C@@H](C)C(=O)[C@H](C)[C@H]2N(CCCCn3cnc(-c4cccnc4)c3)C(=O)O[C@]12C; assay: purified protein; format: biochemical, Brachybacterium faecium; details: GTP 200 µM
[4] = tested on: CC[C@H]1OC(=O)[C@H](C)[C@@H](O[C@H]2C[C@@](C)(OC)[C@@H](O)[C@H](C)O2)[C@H](C)[C@@H](O[C@@H]2O[C@H](C)C[C@H](N(C)C)[C@H]2O)[C@](C)(O)C[C@@H](C)/C(=N\OCOCCOC)[C@H](C)[C@@H](O)[C@]1(C)O; assay: purified protein; format: biochemical, Brachybacterium faecium; details: GTP 200 µM
[5] = tested on: CC[C@H]1OC(=O)[C@H](C)[C@@H](O[C@H]2C[C@@](C)(OC)[C@@H](O)[C@H](C)O2)[C@H](C)[C@@H](O[C@@H]2O[C@H](C)C[C@H](N(C)C)[C@H]2O)[C@](C)(O)C[C@@H](C)C(=O)[C@H](C)[C@@H](O)[C@]1(C)O; assay: purified protein; format: biochemical, Brachybacterium faecium; details: GTP 200 µM
[6] = tested on: CC[C@H]1OC(=O)[C@H](C)[C@@H](O[C@H]2C[C@@](C)(OC)[C@@H](O)[C@H](C)O2)[C@H](C)[C@@H](O[C@@H]2O[C@H](C)C[C@H](N(C)C)[C@H]2O)[C@](C)(O)C[C@@H](C)CN(C)[C@H](C)[C@@H](O)[C@]1(C)O; assay: purified protein; format: biochemical, Brachybacterium faecium; details: GTP 200 µM
[7] = tested on: CC[C@H]1OC(=O)[C@H](C)[C@@H](O[C@H]2C[C@@](C)(OC)[C@@H](O)[C@H](C)O2)[C@H](C)[C@@H](O[C@@H]2O[C@H](C)C[C@H](N(C)C)[C@H]2O)[C@](C)(OC)C[C@@H](C)C(=O)[C@H](C)[C@@H](O)[C@]1(C)O; assay: purified protein; format: biochemical, Brachybacterium faecium; details: GTP 200 µM
[8] = tested on: Nc1nc2c(ncn2[C@@H]2O[C@H](COP(=O)(O)OP(=O)(O)OP(=O)(O)O)[C@@H](O)[C@H]2O)c(=O)[nH]1; assay: purified protein; format: biochemical, Brachybacterium faecium; details: erythromycin 400 µM (table note; methods say 200 µM macrolide)

## CC[C@H]1OC(=O)[C@H](C)[C@@H](O[C@H]2C[C@@](C)(OC)[C@@H](O)[C@H](C)O2)[C@H](C)[C@@H](O[C@@H]2O[C@H](C)C[C@H](N(C)C)[C@H]2O)[C@](C)(O)C[C@@H](C)CN(C)[C@H](C)[C@@H](O)[C@]1(C)O [Azithromycin]
[1]; GTP 200 µM
  Km: 54 ± 7.59 µM

## CC[C@H]1OC(=O)[C@H](C)[C@@H](O[C@H]2C[C@@](C)(OC)[C@@H](O)[C@H](C)O2)[C@H](C)[C@@H](O[C@@H]2O[C@H](C)C[C@H](N(C)C)[C@H]2O)[C@](C)(OC)C[C@@H](C)C(=O)[C@H](C)[C@@H](O)[C@]1(C)O [Clarithromycin]
[1]; GTP 200 µM
  Km: 21.9 ± 5.45 µM

## CC[C@H]1OC(=O)[C@H](C)[C@@H](O[C@H]2C[C@@](C)(OC)[C@@H](O)[C@H](C)O2)[C@H](C)[C@@H](O[C@@H]2O[C@H](C)C[C@H](N(C)C)[C@H]2O)[C@](C)(O)C[C@@H](C)C(=O)[C@H](C)[C@@H](O)[C@]1(C)O [Erythromycin]
[1]; GTP 200 µM
  Km: 43.8 ± 11.3 µM

## Nc1nc2c(ncn2[C@@H]2O[C@H](COP(=O)(O)OP(=O)(O)OP(=O)(O)O)[C@@H](O)[C@H]2O)c(=O)[nH]1 [GTP]
[1]; erythromycin 400 µM (table note; methods say 200 µM macrolide)
  Km: 10.2 ± 0.53 µM

## CC[C@H]1OC(=O)[C@H](C)[C@@H](O[C@H]2C[C@@](C)(OC)[C@@H](O)[C@H](C)O2)[C@H](C)[C@@H](O[C@@H]2O[C@H](C)C[C@H](N(C)C)[C@H]2O)[C@](C)(O)C[C@@H](C)/C(=N\OCOCCOC)[C@H](C)[C@@H](O)[C@]1(C)O [Roxithromycin]
[1]; GTP 200 µM
  Km: 59 ± 10.9 µM

## CC[C@H]1OC(=O)[C@H](C)C(=O)[C@H](C)[C@@H](O[C@@H]2O[C@H](C)C[C@H](N(C)C)[C@H]2O)[C@](C)(OC)C[C@@H](C)C(=O)[C@H](C)[C@H]2N(CCCCn3cnc(-c4cccnc4)c3)C(=O)O[C@]12C [Telithromycin]
[1]; GTP 200 µM, substrate-inhibition fit
  Km: 12.2 ± 5 µM
[2]
  Ki: 600 ± 285 µM

## MPH (2′)-II from B. faecium DSM 4810 (Brachybacterium faecium DSM 4810)
[3]
  Km: 23.9 ± 4.22 µM
  kcat: 0.168 s⁻¹
  kcat/Km: 7050 M⁻¹ s⁻¹
[4]
  Km: 19.3 ± 2.60 µM
  kcat: 0.262 s⁻¹
  kcat/Km: 13600 M⁻¹ s⁻¹
[5]
  Km: 38.2 ± 6.24 µM
  kcat: 0.192 s⁻¹
  kcat/Km: 5030 M⁻¹ s⁻¹
[6]
  Km: 60.6 ± 8.86 µM
  kcat: 0.312 s⁻¹
  kcat/Km: 5180 M⁻¹ s⁻¹
[7]
  Km: 42.0 ± 6.26 µM
  kcat: 0.286 s⁻¹
  kcat/Km: 6810 M⁻¹ s⁻¹
[8]
  Km: 16.0 ± 1.3 µM
  kcat: 0.203 s⁻¹
  kcat/Km: 12700 M⁻¹ s⁻¹
